# Test results from PMC4434323.
# Experiments:
# [1] = target: T1, dmd-6 (F13G11.1) (Caenorhabditis elegans) (UniProt O62159)
# T1 sequence: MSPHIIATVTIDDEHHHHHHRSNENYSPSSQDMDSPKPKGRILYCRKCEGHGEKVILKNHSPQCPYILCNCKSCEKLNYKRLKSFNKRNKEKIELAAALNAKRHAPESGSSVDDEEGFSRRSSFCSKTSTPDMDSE
# [2] = target: T2, nhr-168 (C50B6.8) (Caenorhabditis elegans) (UniProt P91983)
# T2 sequence: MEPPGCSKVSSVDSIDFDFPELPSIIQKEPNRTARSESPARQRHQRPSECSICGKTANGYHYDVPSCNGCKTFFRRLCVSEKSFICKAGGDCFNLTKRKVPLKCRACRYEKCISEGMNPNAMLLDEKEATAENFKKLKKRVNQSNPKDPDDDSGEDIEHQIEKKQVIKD
# [3] = target: T3, K02D7.2 (K02D7.2) (Caenorhabditis elegans) (UniProt O45103)
# T3 sequence: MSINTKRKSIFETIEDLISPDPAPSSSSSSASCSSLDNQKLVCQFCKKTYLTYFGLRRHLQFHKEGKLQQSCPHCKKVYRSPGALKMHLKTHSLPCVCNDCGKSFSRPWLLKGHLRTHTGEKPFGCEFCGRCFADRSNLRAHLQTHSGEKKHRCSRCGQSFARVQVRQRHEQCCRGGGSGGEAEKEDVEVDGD
# [4] = target: T4, ces-1 (F43G9.11) (Caenorhabditis elegans) (UniProt G5ECN8)
# T4 sequence: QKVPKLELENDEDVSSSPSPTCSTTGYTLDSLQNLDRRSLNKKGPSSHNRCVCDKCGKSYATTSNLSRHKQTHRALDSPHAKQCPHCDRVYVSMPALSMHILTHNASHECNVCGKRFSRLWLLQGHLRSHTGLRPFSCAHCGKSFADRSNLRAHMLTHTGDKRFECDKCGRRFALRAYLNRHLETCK
# [5] = target: T5, hlh-16 (DY3.3) (Caenorhabditis elegans) (UniProt O45320)
# T5 sequence: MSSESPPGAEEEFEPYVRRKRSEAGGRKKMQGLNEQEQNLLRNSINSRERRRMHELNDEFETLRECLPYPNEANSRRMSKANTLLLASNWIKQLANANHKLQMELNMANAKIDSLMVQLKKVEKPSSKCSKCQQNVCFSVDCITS
# [6] = target: T6, unc-120 (D1081.2) (Caenorhabditis elegans) (UniProt Q18955)
# T6 sequence: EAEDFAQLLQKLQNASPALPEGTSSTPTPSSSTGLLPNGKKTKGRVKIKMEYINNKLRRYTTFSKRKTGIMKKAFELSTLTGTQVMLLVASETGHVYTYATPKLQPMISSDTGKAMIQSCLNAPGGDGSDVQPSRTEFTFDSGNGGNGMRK
# [7] = test system: T7, C34D1.1 (C34D1.1) (Caenorhabditis elegans)
# T7 sequence: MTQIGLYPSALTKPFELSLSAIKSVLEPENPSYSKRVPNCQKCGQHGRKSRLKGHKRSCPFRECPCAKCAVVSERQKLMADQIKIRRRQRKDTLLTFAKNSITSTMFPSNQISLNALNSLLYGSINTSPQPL
# [8] = test system: T8, dmd-3 (Y43F8C.10) (Caenorhabditis elegans)
# T8 sequence: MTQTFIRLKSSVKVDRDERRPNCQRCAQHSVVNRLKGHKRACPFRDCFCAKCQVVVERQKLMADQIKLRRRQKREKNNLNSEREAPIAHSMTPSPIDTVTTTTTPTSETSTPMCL
# [9] = target: T9, T27F2.4 (T27F2.4) (Caenorhabditis elegans) (UniProt Q22835)
# T9 sequence: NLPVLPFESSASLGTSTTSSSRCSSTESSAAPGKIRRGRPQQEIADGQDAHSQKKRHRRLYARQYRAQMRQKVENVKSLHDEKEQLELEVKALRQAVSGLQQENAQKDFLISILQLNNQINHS
# [10] = target: T10, hlh-12 (C28C12.8) (Caenorhabditis elegans) (UniProt Q18277)
# T10 sequence: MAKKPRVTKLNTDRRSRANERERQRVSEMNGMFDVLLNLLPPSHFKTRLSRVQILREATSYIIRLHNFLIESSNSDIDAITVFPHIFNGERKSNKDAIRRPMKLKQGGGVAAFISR
# [11] = target: T11, Y51H4A.4 (Y51H4A.4) (Caenorhabditis elegans) (UniProt Q9NAE4)
# T11 sequence: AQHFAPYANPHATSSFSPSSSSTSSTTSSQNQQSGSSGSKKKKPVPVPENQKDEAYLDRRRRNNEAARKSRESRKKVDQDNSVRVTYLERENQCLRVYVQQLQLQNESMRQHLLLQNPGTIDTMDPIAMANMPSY
# [12] = target: T12, odr-7 (T18D3.2) (Caenorhabditis elegans) (UniProt P41933)
# T12 sequence: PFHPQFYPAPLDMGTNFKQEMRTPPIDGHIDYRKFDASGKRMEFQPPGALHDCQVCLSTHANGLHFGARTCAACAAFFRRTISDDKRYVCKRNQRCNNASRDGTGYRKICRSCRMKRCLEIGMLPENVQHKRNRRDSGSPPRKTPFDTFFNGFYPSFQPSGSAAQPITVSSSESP
# [13] = target: T13, jun-1 (T24H10.7) (Caenorhabditis elegans) (UniProt G5ECU7)
# T13 sequence: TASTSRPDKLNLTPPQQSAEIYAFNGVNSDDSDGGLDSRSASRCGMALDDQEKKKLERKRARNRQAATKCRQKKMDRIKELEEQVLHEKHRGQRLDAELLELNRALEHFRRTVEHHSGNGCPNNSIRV
# [14] = target: T14, T07C12.11 (T07C12.11) (Caenorhabditis elegans) (UniProt G5EGG9)
# T14 sequence: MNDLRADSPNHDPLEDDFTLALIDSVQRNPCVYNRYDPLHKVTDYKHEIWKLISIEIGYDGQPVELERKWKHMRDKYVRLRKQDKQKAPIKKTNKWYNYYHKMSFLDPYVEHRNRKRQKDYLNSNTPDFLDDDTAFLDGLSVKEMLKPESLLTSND
# [15] = target: T15, Y44A6D.3 (Y44A6D.3) (Caenorhabditis elegans) (UniProt Q9XXE0)
# T15 sequence: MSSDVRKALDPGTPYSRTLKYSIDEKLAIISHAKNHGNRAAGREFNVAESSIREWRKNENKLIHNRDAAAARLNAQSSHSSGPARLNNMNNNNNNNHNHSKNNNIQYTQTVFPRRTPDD
# [16] = target: T16, atf-2 (K08F8.2) (Caenorhabditis elegans) (UniProt Q21361)
# T16 sequence: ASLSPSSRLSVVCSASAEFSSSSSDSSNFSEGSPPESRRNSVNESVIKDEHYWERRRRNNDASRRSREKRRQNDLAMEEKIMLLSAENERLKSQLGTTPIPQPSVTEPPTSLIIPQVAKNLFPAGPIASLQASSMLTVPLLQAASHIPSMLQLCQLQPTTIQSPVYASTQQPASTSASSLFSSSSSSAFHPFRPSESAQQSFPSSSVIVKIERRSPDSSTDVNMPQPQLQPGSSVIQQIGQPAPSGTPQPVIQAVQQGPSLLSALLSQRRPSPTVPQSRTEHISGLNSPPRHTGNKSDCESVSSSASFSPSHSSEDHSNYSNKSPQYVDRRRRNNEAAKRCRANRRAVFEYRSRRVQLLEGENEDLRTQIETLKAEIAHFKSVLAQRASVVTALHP
# [17] = target: T17, Y75B8A.6 (Y75B8A.6) (Caenorhabditis elegans) (UniProt A0A168H365)
# T17 sequence: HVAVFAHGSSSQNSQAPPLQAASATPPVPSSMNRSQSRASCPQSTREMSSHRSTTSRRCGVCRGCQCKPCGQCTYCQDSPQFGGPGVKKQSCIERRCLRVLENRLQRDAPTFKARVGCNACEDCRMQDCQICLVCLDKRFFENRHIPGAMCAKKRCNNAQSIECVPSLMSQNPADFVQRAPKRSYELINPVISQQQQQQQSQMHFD
sequence,measurement,setting,value
AAAATGTT (double strand) [8-mer AAAATGTT],binding signal (PBM E-score (-0.5 to 0.5)),[1],0.475
same,binding signal (PBM E-score (-0.5 to 0.5)),[2],0.458
AAATGTTC (double strand) [8-mer AAATGTTC],binding signal (PBM E-score (-0.5 to 0.5)),[1],0.469
same,binding signal (PBM E-score (-0.5 to 0.5)),[2],0.487
AACAGGTG (double strand) [8-mer AACAGGTG],binding signal (PBM E-score (-0.5 to 0.5)),[3],0.488
same,binding signal (PBM E-score (-0.5 to 0.5)),[4],0.468
AATATGGT (double strand) [8-mer AATATGGT],binding signal (PBM E-score (-0.5 to 0.5)),[5],0.452
same,binding signal (PBM E-score (-0.5 to 0.5)),[6],0.466
AATGATCT (double strand) [8-mer AATGATCT],binding signal (PBM E-score (-0.5 to 0.5)),[2],0.45
AATGTTCT (double strand) [8-mer AATGTTCT],binding signal (PBM E-score (-0.5 to 0.5)),[2],0.482
AATGTTTC (double strand) [8-mer AATGTTTC],binding signal (PBM E-score (-0.5 to 0.5)),[7],0.497
same,binding signal (PBM E-score (-0.5 to 0.5)),[8],0.482
AATTCGTA (double strand) [8-mer AATTCGTA],binding signal (PBM E-score (-0.5 to 0.5)),[9],0.47
ACAATATG (double strand) [8-mer ACAATATG],binding signal (PBM E-score (-0.5 to 0.5)),[5],0.471
ACCATATG (double strand) [8-mer ACCATATG],binding signal (PBM E-score (-0.5 to 0.5)),[10],0.468
same,binding signal (PBM E-score (-0.5 to 0.5)),[5],0.478
ACCTGTAG (double strand) [8-mer ACCTGTAG],binding signal (PBM E-score (-0.5 to 0.5)),[4],0.452
ACCTGTTG (double strand) [8-mer ACCTGTTG],binding signal (PBM E-score (-0.5 to 0.5)),[4],0.493
ACGTAATA (double strand) [8-mer ACGTAATA],binding signal (PBM E-score (-0.5 to 0.5)),[11],0.472
ACTTGTTG (double strand) [8-mer ACTTGTTG],binding signal (PBM E-score (-0.5 to 0.5)),[4],0.465
AGAAACAT (double strand) [8-mer AGAAACAT],binding signal (PBM E-score (-0.5 to 0.5)),[7],0.492
same,binding signal (PBM E-score (-0.5 to 0.5)),[8],0.466
AGCAACAG (double strand) [8-mer AGCAACAG],binding signal (PBM E-score (-0.5 to 0.5)),[4],0.466
AGTACAAA (double strand) [8-mer AGTACAAA],binding signal (PBM E-score (-0.5 to 0.5)),[2],0.456
same,binding signal (PBM E-score (-0.5 to 0.5)),[12],0.451
ATGACTAA (double strand) [8-mer ATGACTAA],binding signal (PBM E-score (-0.5 to 0.5)),[13],0.465
ATGACTCA (double strand) [8-mer ATGACTCA],binding signal (PBM E-score (-0.5 to 0.5)),[13],0.498
ATGAGTCA (double strand) [8-mer ATGAGTCA],binding signal (PBM E-score (-0.5 to 0.5)),[13],0.493
ATGTTCTC (double strand) [8-mer ATGTTCTC],binding signal (PBM E-score (-0.5 to 0.5)),[2],0.465
ATGTTTCA (double strand) [8-mer ATGTTTCA],binding signal (PBM E-score (-0.5 to 0.5)),[7],0.498
same,binding signal (PBM E-score (-0.5 to 0.5)),[8],0.479
ATTACGAA (double strand) [8-mer ATTACGAA],binding signal (PBM E-score (-0.5 to 0.5)),[9],0.485
ATTACGTA (double strand) [8-mer ATTACGTA],binding signal (PBM E-score (-0.5 to 0.5)),[14],0.485
same,binding signal (PBM E-score (-0.5 to 0.5)),[11],0.459
ATTAGTCA (double strand) [8-mer ATTAGTCA],binding signal (PBM E-score (-0.5 to 0.5)),[13],0.463
ATTCGTAA (double strand) [8-mer ATTCGTAA],binding signal (PBM E-score (-0.5 to 0.5)),[9],0.489
CAATATGG (double strand) [8-mer CAATATGG],binding signal (PBM E-score (-0.5 to 0.5)),[5],0.486
CAATATTG (double strand) [8-mer CAATATTG],binding signal (PBM E-score (-0.5 to 0.5)),[5],0.495
CCATATGG (double strand) [8-mer CCATATGG],binding signal (PBM E-score (-0.5 to 0.5)),[5],0.452
CCTGTTGC (double strand) [8-mer CCTGTTGC],binding signal (PBM E-score (-0.5 to 0.5)),[4],0.479
GTACAAAA (double strand) [8-mer GTACAAAA],binding signal (PBM E-score (-0.5 to 0.5)),[2],0.46
GTGACTCA (double strand) [8-mer GTGACTCA],binding signal (PBM E-score (-0.5 to 0.5)),[13],0.47
GTGAGTCA (double strand) [8-mer GTGAGTCA],binding signal (PBM E-score (-0.5 to 0.5)),[13],0.478
GTTGCGCA (double strand) [8-mer GTTGCGCA],binding signal (PBM E-score (-0.5 to 0.5)),[15],0.493
same,binding signal (PBM E-score (-0.5 to 0.5)),[16],0.452
TACGAATA (double strand) [8-mer TACGAATA],binding signal (PBM E-score (-0.5 to 0.5)),[9],0.452
TGGCGCAA (double strand) [8-mer TGGCGCAA],binding signal (PBM E-score (-0.5 to 0.5)),[16],0.461
TGGCGTAA (double strand) [8-mer TGGCGTAA],binding signal (PBM E-score (-0.5 to 0.5)),[16],0.452
TTACATAA (double strand) [8-mer TTACATAA],binding signal (PBM E-score (-0.5 to 0.5)),[11],0.489
TTACGCAA (double strand) [8-mer TTACGCAA],binding signal (PBM E-score (-0.5 to 0.5)),[14],0.494
same,binding signal (PBM E-score (-0.5 to 0.5)),[11],0.487
same,binding signal (PBM E-score (-0.5 to 0.5)),[16],0.483
TTATATAA (double strand) [8-mer TTATATAA],binding signal (PBM E-score (-0.5 to 0.5)),[11],0.451
TTCGTAAA (double strand) [8-mer TTCGTAAA],binding signal (PBM E-score (-0.5 to 0.5)),[9],0.458
TTGCGCAA (double strand) [8-mer TTGCGCAA],binding signal (PBM E-score (-0.5 to 0.5)),[14],0.493
same,binding signal (PBM E-score (-0.5 to 0.5)),[17],0.462
same,binding signal (PBM E-score (-0.5 to 0.5)),[16],0.498
